The numbers were not newly measured in publication PMC11231438, which cites them from elsewhere.

The series concerns the target plasminogen (Homo sapiens) (UniProt P00747).
UniProt P00747, sequence (P00747 20-810): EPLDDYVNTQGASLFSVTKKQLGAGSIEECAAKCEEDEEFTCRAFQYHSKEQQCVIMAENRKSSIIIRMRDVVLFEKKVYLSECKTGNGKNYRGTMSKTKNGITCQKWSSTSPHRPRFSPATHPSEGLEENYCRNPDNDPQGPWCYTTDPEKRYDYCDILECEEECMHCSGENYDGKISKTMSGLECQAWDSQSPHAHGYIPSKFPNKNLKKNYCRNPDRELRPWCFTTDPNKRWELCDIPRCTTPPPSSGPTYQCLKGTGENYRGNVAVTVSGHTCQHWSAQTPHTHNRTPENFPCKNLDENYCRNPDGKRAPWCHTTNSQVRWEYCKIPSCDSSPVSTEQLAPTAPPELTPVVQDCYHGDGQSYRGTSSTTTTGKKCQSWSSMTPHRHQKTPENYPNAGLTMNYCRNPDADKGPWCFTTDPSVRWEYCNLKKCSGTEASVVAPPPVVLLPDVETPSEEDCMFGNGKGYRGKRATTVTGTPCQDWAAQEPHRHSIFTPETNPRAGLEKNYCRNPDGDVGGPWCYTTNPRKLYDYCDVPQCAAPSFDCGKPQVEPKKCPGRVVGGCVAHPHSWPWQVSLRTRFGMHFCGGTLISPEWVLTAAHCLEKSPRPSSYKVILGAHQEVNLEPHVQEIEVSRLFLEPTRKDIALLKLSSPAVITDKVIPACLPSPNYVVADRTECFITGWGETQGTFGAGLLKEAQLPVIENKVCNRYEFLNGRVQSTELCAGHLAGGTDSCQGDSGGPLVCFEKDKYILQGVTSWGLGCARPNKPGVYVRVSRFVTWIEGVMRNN

Usually Kd stands for the equilibrium constant for the complex coming apart. As to enolase (from UniProt Q96X30), the Kd was 530 nM.
